Reference: US20180134780A1 (Hoffmann-La Roche, published 2018)

Target: T1, Human angiopoietin-2 (ANG-2) (human, UniProt O15123 19-496, limits assumed)
T1 construct: Bought (R&D Systems Cat. No. 623-AN) or produced in house; also called ANGPT2; huAngiopoietin-2
T1 sequence: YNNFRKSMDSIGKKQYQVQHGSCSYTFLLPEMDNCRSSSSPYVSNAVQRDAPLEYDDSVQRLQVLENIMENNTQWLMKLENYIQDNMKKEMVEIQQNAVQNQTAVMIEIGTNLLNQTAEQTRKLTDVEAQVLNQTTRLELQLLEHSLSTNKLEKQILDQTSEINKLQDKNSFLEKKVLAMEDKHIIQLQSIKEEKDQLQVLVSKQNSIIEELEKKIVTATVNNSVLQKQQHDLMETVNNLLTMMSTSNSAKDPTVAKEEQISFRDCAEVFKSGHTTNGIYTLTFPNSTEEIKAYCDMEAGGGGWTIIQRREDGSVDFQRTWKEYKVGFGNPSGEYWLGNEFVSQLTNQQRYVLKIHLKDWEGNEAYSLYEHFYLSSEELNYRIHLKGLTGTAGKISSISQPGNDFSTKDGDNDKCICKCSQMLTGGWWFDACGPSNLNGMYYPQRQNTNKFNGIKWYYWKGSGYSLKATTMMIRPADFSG
Assay: ANG2/Tie2 receptor interaction ELISA (Experiment A): antibody dilutions pre-incubated with 0.2 ug/ml huAngiopoietin-2, coated human Tie2, bound ANG-2 detected
Experimental: Blocking of human ANG-2/human Tie2 interaction was shown by receptor interaction ELISA. 384-well Maxisorp plates (Nunc) were coated with 0.5 μg/ml human Tie2 (R&D Systems, UK, Cat. No. 313-TI or in house produced material) for 2 h at room temperature and blocked with PBS supplemented with 0.2% Tween-20 and 2% BSA (Roche Diagnostics GmbH, DE) for 1 h at room temperature under shaking. In the meantime, Dilutions of purified antibodies in PBS were incubated together with 0.2 μg/ml huAngiopoietin-1/2 (R&D Systems #923-AN/CF, R&D Systems, UK, Cat. No. 623-AN or in house produced material) for 1 hour at RT. After washing a mixture of 0.5 μg/ml biotinylated anti-Angiopoietin-1/2 clone (R&D Systems #BAF923, BAM0981 R&D Systems, UK) and 1:3000 diluted streptavidin HRP (Roche Diagnostics GmbH, DE, Cat. No. 11089153001) was added for 1 h. Thereafter the plates were washed 6 times with PBST. Plates were developed with freshly prepared ABTS reagent (Roche Diagnostics GmbH, DE, buffer #204 530 001, tablets #11 112 422 001) for 30 minutes at RT. Absorbance was measured at 405 nm.

B1: <ANG-2>Ang2i_LC06 (antibody, V domains shown)
VH: not shown
VL: QPGLTQPPSVSVAPGQTARITCGGNNIGSKSVHWYQQKPGQAPVLVVYDDSDRPSGIPERFSGSNSGNTATLTISRVEAGDEADYYCQVWDSSSDHYVFGTGTKVTVLG
notes: also called anti-ANG2 antibody
IC50: 0.1 nM
